This test deals with T1, cMyc-tagged 65-kDa latent heparanase (human, UniProt Q9Y251 36-543).
T1 construct: heparanase, human, 65-kDa latent (unprocessed) form; also called cMyc-latent heparanase; latent cMyc-heparanase; source: medium conditioned by heparanase infected CHO cells, purified (heparin column)
T1 sequence (looked up): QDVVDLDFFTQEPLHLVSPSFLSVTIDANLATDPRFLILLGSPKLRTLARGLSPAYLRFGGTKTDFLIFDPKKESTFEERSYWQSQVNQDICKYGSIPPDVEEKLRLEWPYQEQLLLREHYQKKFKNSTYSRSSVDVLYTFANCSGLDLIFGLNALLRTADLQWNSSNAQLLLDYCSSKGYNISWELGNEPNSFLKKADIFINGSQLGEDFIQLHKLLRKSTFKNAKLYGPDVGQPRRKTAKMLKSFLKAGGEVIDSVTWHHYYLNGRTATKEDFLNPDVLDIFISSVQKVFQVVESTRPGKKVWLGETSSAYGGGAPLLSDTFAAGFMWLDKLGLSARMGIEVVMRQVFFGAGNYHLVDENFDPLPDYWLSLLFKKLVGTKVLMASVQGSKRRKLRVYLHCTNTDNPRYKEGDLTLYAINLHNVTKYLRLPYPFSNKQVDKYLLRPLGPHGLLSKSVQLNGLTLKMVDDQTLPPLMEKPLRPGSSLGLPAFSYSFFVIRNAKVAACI
Kind of test: ELISA; competition: cMyc latent heparanase as coating layer; analyte resistin (200 ng/ml) preincubated 30 min at RT with the competitor (active heparanase, or leptin as control); bound resistin detected by anti resistin antibodies. The conditions noted are these: both partners purified. A general note: In an ELISA, binding on a coated surface is turned into a signal by an enzyme label.

B1: human recombinant resistin expressed in HEK 293 (natural protein, UniProt Q9HD89 19-108, looked up)
chain: KTLCSMEEAINERIQEVAGSLIFRAISSIGLECQSVTSRGDLATCPRGFAVTGCTCGSACGSWDVRAETTCHCQCAGMDWTGARCCRVQP
notes: resistin, human, recombinant; Runs as a 12 kDa band under reducing conditions; also called RETN; source: HEK 293, pure preparation, gift from Serono
As to B1, the binding result is on record as “binds”.
